From the supplement of paper PMC9170038

System: MS2 coat protein
Experiment: apparent KD of MS2 coat protein; designed switch direction (-1 OFF switch, 1 ON switch): 1; higher = weaker reporter binding
How it was run: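 An oligonucleotide input, 200 uM small-molecule ligand, or no input was present during titration of SNAP-549-labelled MS2 coat protein, which was doubled from 0.7 or 1.5 nM to 3 µM. Designed RNA switches had been transcribed on Illumina chips by stalled E. coli RNA polymerase. Apparent KD per design is the median over clusters of curves fitted to normalised cluster fluorescence.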

[1] = input ligand: microRNA oligo, concentration not stated
[2] = Eterna round: R95, input ligand: FMN 200 uM
[3] = Eterna round: R95, input ligand: microRNA oligo, concentration not stated
[4] = Eterna round: R95, input ligand: none

| Sequence | apparent KD of MS2 coat protein (input ligand: FMN 200 uM) [nM] | apparent KD of MS2 coat protein [1] [nM] | apparent KD of MS2 coat protein (input ligand: none) [nM] | apparent KD of MS2 coat protein [2] [nM] | apparent KD of MS2 coat protein [3] [nM] | apparent KD of MS2 coat protein [4] [nM] |
| --- | --- | --- | --- | --- | --- | --- |
| AGCUAUUACGAAGGAUAUAGUGACAUGAGGAUCACCCAUGUGUACAUGAGUAAUUGUGAUCACGUCUAGAAGGUUGUACUAACA [SameState NG2 #35] (Eterna round: R96, puzzle: Same State NG 2) | 181 | 165 | 180 |  |  |  |
| AGCUAUUACGAAGGAUAUUCUGACAUGAGGAUCACCCAUGUCUUCAUGAUUUAUUGUGAUCACAUGAAGAAGGUUGUACUAACA [SameState NG2 #25] (Eterna round: R96, puzzle: Same State NG 2) | 106 | 130 | 93.1 |  |  |  |
| AGCUAUUACGAAGGAUAUUCUGACAUGAGGAUCACCCAUGUCUUCAUGAUUUAUUGUGAUCACGUGGAGAAGGUUGUACUAACA [SameState NG2 #27] (Eterna round: R96, puzzle: Same State NG 2) | 90.4 | 77.9 | 91.4 |  |  |  |
| AGCUUGUAACAUGAGGAUCACCCAUGUACAAGCUUUUUGCUCGUUUUACCCGGGCCCGGCGAUUACACGGGCCCGGG [Optimized Design] (puzzle: Sensor for hsa-mir-208a version 2) |  |  |  | 10.1 | 9.89 | 9.67 |
| AGGACGAGCACAGGAUAUCCGCGGAACAGCCGCGGAGAAGGGUGAAGUCAUGGAAAGAAAAGACAUGAGGAUCACCCAUGUAAA [Ageteerer] (Eterna round: R96, puzzle: Same State NG 1) | 223 | 1320 | 680 |  |  |  |
| AGGCAAGCUUUUUGCUGGUAUGGAGGAUAACAUGAGGAUCACCCAUGUAUUGGAGGUGUUGUGGAUUUGAGAAAGAA [JR_SHM208A_Sub004] (puzzle: Sensor for hsa-mir-208a) |  |  |  | 74 | 94.6 | 103 |
| AGGUUCCUGCUAGGAUAUCUAGGAUAUGGACGAGGAUUACCCGAGCAGGAUUACCGCACCAGAGGAGAGAAGGAGCAACAAGAG [pwkr ssNG2 2F5 2FMN.14] (Eterna round: R96, puzzle: Same State NG 2) | 1740 | 370 | 160 |  |  |  |
| AGUAGGGCGUCAUAGGAUAUCCGGAAGAGUACAUGAGGAUCACCCAUGUCACUCCGCCAUGCAGAGGAGAAGGGUGGUGUUGUAC [Biedzage] (puzzle: Same State 2) |  |  |  | 77.6 | 36.6 | 41 |
| AGUCCAGCCAGAGCUGGACAAAAGCAUGUACAUGAGGAUCACCCAUGUUCAUGUACAAGCUUUUUGCUCGUCUUAAU [Mat - hsa-mir-208a - Mod of JL - 59] (Eterna round: R96, puzzle: Sensor for hsa-mir-208a) | 620 | 15.3 | 583 |  |  |  |
| AGUCCAGCCAGAGCUGGACAAAAGCAUGUACAUGAGGAUCACCCAUGUUCAUGUACAAGCUUUUUGCUCGUCUUAAU [Mat - hsa-mir-208a - Mod of JL - 59] (puzzle: Sensor for hsa-mir-208a) |  |  |  | 482 | 14.1 | 553 |
| AGUCCAGCCUGAGCUGGACAAAAGCAUGUACAUGAGGAUCACCCAUGUCAUGUACAAGCUUUUUGCUAGUCUUAAAA [Mat - hsa-mir-208a - Mod of JL - D12] (puzzle: Sensor for hsa-mir-208a) |  |  |  | 413 | 13.7 | 551 |
| AGUCCAGCCUGAGCUGGACAAAAGCAUGUACAUGAGGAUCACCCAUGUUCAUGUACAAGCUUUUUGCUCGUCUUAUA [salish99_208a_r3_043] (puzzle: Sensor for hsa-mir-208a) |  |  |  | 528 | 14.6 | 697 |
| AGUCCAGCCUGAGCUGGACAAAAGCAUGUACAUGAGGAUCACCCAUGUUCAUGUACAAGCUUUUUGUUCGUCUUAAA [Zipper 52 - 9] (puzzle: Sensor for hsa-mir-208a) |  |  |  | 179 | 11 | 431 |
| AGUCCAGCCUGAGCUGGACAAAAGCAUGUACAUGAGGAUCACCCAUGUUCAUGUACUAGCUUUUUGCUCGUCUUGCC [salish99_208a_r3_108x] (puzzle: Sensor for hsa-mir-208a) |  |  |  | 157 | 14.8 | 163 |
| AGUCCAGCCUGAGCUGGACAAAAGCGUGUACAUGAGGAUCACCCAUGUCAUGUACAAGCUUUUUGCUCGUCUUAAAA [Zipper 46 - 7] (puzzle: Sensor for hsa-mir-208a) |  |  |  | 63.5 | 19.9 | 69.8 |
| AGUCCAGCCUGAGCUGGACAAAGGCAUGUACAUGAGGAUCACCCAUGUCAUGUACAAGCUUUUUGCUCGUCUUAAAA [Zipper 46 - 1] (puzzle: Sensor for hsa-mir-208a) |  |  |  | 161 | 14.9 | 187 |
| AGUCCAGCCUGAGCUGGACAGAAGCAUGUACAUGAGGAUCACCCAUGUCAUGUACAAGCUUUUUGCUCGUCUUAAUA [Zipper 49 - 3] (puzzle: Sensor for hsa-mir-208a) |  |  |  | 459 | 16.2 | 641 |
| AGUCCAGCGAAAGCUGGACAAAAGUAUGUACAUGAGGAUCACCCAUGUUCAUGUACAAGCUUUUUGCUCGUUUUAAA [JL mod - D95 - 19] (puzzle: Sensor for hsa-mir-208a) |  |  |  | 814 | 48.1 | 928 |
| AGUCCAGGCUGACCUGGACAAAAGCAUGUACAUGAGGAUCACCCAUGUCAUGUACAAGCUUUUUGCUCGUCUUAAAA [Mat - hsa-mir-208a - Mod of JL - D16] (puzzle: Sensor for hsa-mir-208a) |  |  |  | 701 | 14.3 | 637 |
| AGUGAACAUGAGGAUCACCCAUGUGAGAGGGAUGUAGGAUAUGUAAGGAAGUAAGAUGGAACAGAAGGACAAAGUG [JR_SS!_Sub067] (puzzle: Same State 1) |  |  |  | 38.6 | 46.1 | 50.4 |
